From the supplement of paper PMC12636428

Test system: Saccharomyces cerevisiae
Experiment: transcriptional activation domain activity (GFP:mCherry ratio, weighted mean of sorted bins, harmonized to initial dataset scale) (arbitrary fluorescence ratio units); higher = stronger transcriptional activation
Settings: beta-estradiol 1 µM; induction time 4 h
Outline: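 In diploid yeast carrying a GFP reporter, barcoded protein tiles fused to an estradiol-inducible synthetic transcription factor were integrated at the URA3 locus. Cultures diluted 1:5 into SC with 1 uM beta-estradiol were kept at 30 °C for 4 hours, then sorted by GFP:mCherry ratio into 8 bins before barcode sequencing. Tiles with under 50 reads were excluded. The activation activity reported here is the read-weighted mean of bin median fluorescence, averaged across barcodes and linearly rescaled to the initial dataset.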

Sequence | transcriptional activation domain activity
MASASLASKQSIRPHRKSRTGCSTCKRRKVKSLAVVGAGLGRSGQVTAGSPTG | 54100
MASEQVEEVTKKVADVAIEAPAAAPAKAPKAPKAPKAKKAKKEAAEGSSPLEL | 13700
MASGILGLLVVNFVLLLICFIAYSSQIFVIWPWYGRTVSVELISLLLPFNILV | 42800
MASKDPVYDEKTGAPKLVAESDSSNVETGGGTPERTLHRQLKNRHIAMISIGG | 44900
MASLRNHAEQLNAAVYRNYKKDRKVGEGAYAVVYLGTQLSTKKVVAIKKIKVG | 49800
MASPASSTEQQRAAKRKSHRKSRNGCFQCKQRHSKVSQSSTLLAAAASNLSRT | 27100
MASQATTLRGYNIRKRDNVFEPKSSENLNSLNQSEEEGHIGRWPPLGYEAVSA | 50300
MASSTPRVRSLYRRLLRELPTHPSATPNTTTAASRTTPSKYRSTAHQKLSAPS | 31700
MASSTSPSPSTTSIKSEVAPGRTVACLRCRGRRQFCSKERPQCKKCRDARAEC | 28800
MASVVCCTELWCLFGLDVCFFPFSLFALPLVLSPSLFPLSSLSFIIFLFFPVS | 54700
MATAEPTKKRGRPKKVVLVEESAGNAEAVVAEVVKKTTTKKTSTKAPAAPVTT | 40300
MATDATVNAPASAEATTARRRRSHQKSRLGCRNCKLRRVKCDERRPRCVKCRE | 35500
MATFLSCLRPFVCSFFLFSFLFRPWPWVYIHVGFGGNSCSTFDFLSIFFVTFF | 43300
MATLDEALDNEGGKRRRSHKKSRRGCGDCRRRRVKCSEENPRCQACVRRGVQC | 67400
MATLDVFLRVYCFTLSFLLFLFLIIIFILAYSAFAVDFFFLFVYSSTIELCFI | 36200
MATLLGGFWFLVLCSIMLSALLTPLILLTGSLILLSFGSFPSLPHWLLIIIVH | 62400
MATPSTGAPPPKQIRFVNNQGQPPSKRRRVNAACLTCRKRKTRCDGEKPTCST | 20200
MATRHVSAANNANKPRACLTCRTSKHKCDGNDRSTAPCSRCLRTGKSCIWPAK | 33800
MATVISGVCFFFFFFFFCFLLCLVMAFLLLFSFLFLCDLLLRLLLLSPSFDSL | 31200
MAVETVGLGWRTLRSLIIEFILFYCLFTALGYNSLSLLNYRPWIFFSFLFCLF | 57500
MAVIWGLDLKDMQWSKFKGSYMFNNVYHLRKVKMIVYQIAMILCVVSESVGTA | 66800

Sequence | transcriptional activation domain activity
MAVNDGFLFVFSCLFFLIFVTLLLTFPFLFFGSSHFHMGNPPVFPLLILISCY | 47200
MAVSIWDFVLCIFPHLHFLCLWIVFLSLFMFSYCFKFRFTPVLLTISLPRCFF | 51200
MAWAIQGRLFSFNCSCSHFIFWPLFFFFSLPWRAWSSIGNNSRFSRLFFFFFL | 60900
MAWAYGSCLCRCCFFFASLWQFLFFVFGFLPFWPFFGFLLFISVVLPPSSLFL | 46100
MAWHFVWQDIPLMGTMHQISYLLNNFIYCFPIAHVHLQVCFFSSLLLIHFYTF | 68200
MAYLFLYFTIFFIFFFIAGDGGDDCEIFFLFFFFSFKALFTPFFYLYLYWTSA | 25400
MCAASSEGASLSPASSLQRGKACLACRRRKMRCDGARPTCGQCVRGNRVDDCE | 21200
MCACRLFNQICFINKPCRIVNLSISIVYINWGMLLCVMRSDVLSLYLLIMLPV | 80000
MCARSLFCGYIFFLVLYLLAWLGVFPCPFTLFLLSFLFPIFFFLLCWRLAFAC | 45800
MCASVILFCLVFSSSYLLAIFKDCYLALLYYMQCWSMYYLFSDFVCHYPISKG | 72200
MCCAECCLSSLVSFVSFFSRSLHSLTIRGFFLFPGTFHVILFLFFRFFIFFFH | 47400
MCCEAEWKREVVQDHKFDFINVSEFHRTDILTRLKYVWKYILILKAFAVMGLD | 53700
MCCLLLFSPSFLCFFFAFFFYFTFYMTHLSDFSFLQRAIGLTYVFIWLIYRAH | 38100
MCCLLVVLVALSGVGDFFFFSLLLLLLLLERGGVFFLFWLFFFYLFILFFHRG | 57000
MCCLVLSLALLGRHGGMNIFFLCFYVGSFVFIFLRVLVVRLLLLLLLCYYQAL | 70200
MCDLFYTHLISPLFPNMPFWVFFCRLFLLFSLLQCSFICGPFVAVLSYCWLSF | 54600
MCEGDFCVFFCVCVCVCVCLCVLFCFLFWFLFWWLLFFFLVMLFLAVGVFVYI | 35400
MCEQHTCLFVLLSVKLLLWRLLFFVESSFLDGMELVLTGRWWAYYIYLWCLTV | 54400
MCFEFHPFSTSMFYLLSILFLDLSFWLSFYFFMSIVHSVALEFLFVFSLNFFV | 42600
MCFFSFFLFLLRIWLLFCLLLSIPLGFRMRSWGVPTAFVTILHFSLVMHLITV | 59900
MCFRILLSFLHVHPLFENALFYEISLICLLISWRSSTCSMHLLFIFIFILFFC | 42200

Sequence | transcriptional activation domain activity
MCFVVFIRWELLMISHCAVVYLLLLFLLFIVHYFLIEGFLFLYVLVRAFAFVL | 41900
MCGGGWAFGLFFFFLYFFFFFLHIALLLPPLETVYFVLFFCMISRGLCFIFFF | 65400
MCGGSFSLHRLHFFFIYVCFFCFVLSCLFTLAYWVVLYYARLVMGFWWFWWFG | 58300
MCGLVFLFLFPFVFSSFIGGVAIFFFSYFFYFIYFILQHTRILTCTWSVFLLF | 75400
MCGRLISLLVVLLLVKFRNSSLCGILDVFLFFFRRTPFVRMGFYFMIFLLLTI | 65500
MCHLTLLSLCFCSVASLLLSLFPLSLCLPFFILFIPPLFFLPHHIPSSFSFLV | 59600
MCIFFCPVSSLEVIWSVFLVFFYGYIFFTFFFLQCRSMVLIIPFLFTLVFHIF | 42700
MCIFFKGQYPIYLAFVRPFASLFFRVPLFRLFFGIFCAWVLCFLFLLLLSFSC | 43600
MCIICVLYVYYMYICFVCVHCICFYIFVHRFCLSVCMFFFFFFFFVCFINIIL | 69900
MCIKLPLYPASFFIHRSLPLITSVFDLNLTLMVSLCPRIVPISFFACALLLVP | 53000
MCILSLFTAWAGLTLFTCIFSFFLLCIVNALLGQNGVGGLLTARRFNTILRVC | 54400
MCINMYFWKVFFMWTLIFFGLSYIPLSFPGMSYFCLLQHKVFLIILGNHFLRF | 56800
MCINMYFWKVFFMWTLIFFGLSYIPLSFPGMSYFFLLQHEIFLIILGNHFLRF | 42000
MCISRYWICLGKGSVLGYHSFIICFYLGLVEMMGYPLFAFFSLLFIRFLLFLS | 43700
MCKKGKGVAIGPLSLSWFFNLSLVIFSLLSSLQSLWFLPWPLNFVLMVPVHFV | 79900
MCKVSCLGLFGGSFFFFGFGFYLLFYSSFHFSLPGWLVWILYFFFTFFGGSLR | 45900
MCLCLLLLLLLHVFIFFMSFYPSGWPPSYSIIFFLWSFILVVFYPCKFFFLVV | 70400
MCLFVLCLGLLVFFPTRYLLRSAWIKFIKYFNLFLRIIDLGCLFCIPCLIIKY | 42500
MCLLCHATLFSSCPYFSIFLVFSFFSFFSLFFFTSFLSLLLFMSLLPTYYHLY | 43500
MCLLGDGRHPEFFIFYFLYHFFLLYLLFYPQAFSRYLFIWMGCLNCFYFRFGL | 41000
MCLLGDGRHPEFFYFLFFIPFDFLLHLLFYPRAFSRYLFIWMGCLNCFYFGLA | 56200

Sequence | transcriptional activation domain activity
MCLRKVSSLFYIGILFVDLFPTTYVSWWFFFFFLCLNLFVLAMICFGVFWFLC | 29300
MCLSFFVFLLYIYQITFSYLLSIMSQLELCRDCFFGPLALLLVIVILSSLCMY | 69700
MCLTGLWWFVCKFAFSFFLSAGLFFLIHPPLFLILLPLSSFFLFLSLAAASGF | 31400
MCLYRYYGFRIFLCLVVVLGDLFLGYLKLYVYIYNTVLVYWGEISISLLLVYI | 71900
MCMYFFTFFFFTFLFFFTFFVFFFFVSMEYLPTLLALIYIYYMSLPTSAQCSN | 35900
MCNLFSFSVQSISGNGVLYIFSFKVLYTFLPSPLLFLSFFSLLFYFFILSLFS | 38400
MCNVALSLAWFIFPPFLHGILPFSTCLLLVFFLSLSSSFFSLITHLLLHCYLF | 34900
MCPVLFCFYSLMILIFFLSFLFRTSYIYTLYFPGLFVCCLFFLFLLFLSLSQW | 73200
MCPVLFCFYSPMILIFFFFSSFSYLLYIHTILSWFVCLLFVCYYECFLLLSFS | 44700
MCQWWQIVLIRWMNLQILKYWAVEVKPLMMMWRRLIVIIIVILYRNFFFFFLM | 30900
MCRCFFWSFLVFFVFFSLLCLFVSFCVFLCFAFLCFVFFVFCFFCFFCLFCVF | 56600
MCRFFIFLLSFLYDISVPILVFWSVHSPLLGWLFPGGGYTWRCLFFLCFLVYM | 51400
MCRTLISFSLFVGVFILTSIRFFCLSLFFLSSFIFYFTLLLFFLLFLSGLFDL | 50300
MCSCVIRRHPLAKPKMGSFQSIGALTCSSCSSWKMCILLFLILVWFTFRLTSL | 21400
MCSIFLVFIVPPNPLSYLISFAFFFLFSFYLWCLLRRGLSYFALYAYLKYALL | 43700
MCSILPTVCNQYLIFLSFVSCPSMLYLISYFFLMWSFFSLHNWFFCWVPCCVL | 52700
MCTLKLLVLLRIYFPTYISFPFFSPSLLSKCHSFISFSYVPWSLVTFLIYLPS | 75600
MCVAFSFSSPRFFYSWVMGDFSFFFSFLPPFDSFFSFSLGSIMYPLFLGIFFF | 59400
MCVFHFLPWLLFPSPLISLFFVFFILFSFFVFFFLVPSSCPSFISFFPVSCLF | 38000
MCVFLFFVLWLLQKLGLLALALRCYVQKNSLIFFLFFFLVLDYIFFFLHWCKH | 35300
